Test [1] addresses T1, BSA (UniProt P02769 25-607).
T1 construct: also called bovine serum albumin; immobilized BSA
The test is described as follows: indirect ELISA heat map, hIgG subtracted. (In general: In an ELISA, binding on a coated surface is turned into a signal by an enzyme label.)

The target of test [2] is T1, BSA. The test is described as follows: indirect ELISA, OD heat map.
Test [3] concerns the target T2, Ara h 3 (purified natural peanut allergen) (Arachis hypogaea).
T2 construct: mature; bought natural protein; also called natural Ara h 3; NA-AH3-1
The experiment in a line: BLI, antibody on anti-human IgG Fc sensors, Ara h 3 as analyte, top 32 nM.

In test [4] the target is T2, Ara h 3 (purified natural peanut …). The test is described as follows: BLI, antibody on anti-human IgG Fc sensors, Ara h 3 as analyte, top 16 nM.

T1 sequence (P02769 25-607 limits assumed): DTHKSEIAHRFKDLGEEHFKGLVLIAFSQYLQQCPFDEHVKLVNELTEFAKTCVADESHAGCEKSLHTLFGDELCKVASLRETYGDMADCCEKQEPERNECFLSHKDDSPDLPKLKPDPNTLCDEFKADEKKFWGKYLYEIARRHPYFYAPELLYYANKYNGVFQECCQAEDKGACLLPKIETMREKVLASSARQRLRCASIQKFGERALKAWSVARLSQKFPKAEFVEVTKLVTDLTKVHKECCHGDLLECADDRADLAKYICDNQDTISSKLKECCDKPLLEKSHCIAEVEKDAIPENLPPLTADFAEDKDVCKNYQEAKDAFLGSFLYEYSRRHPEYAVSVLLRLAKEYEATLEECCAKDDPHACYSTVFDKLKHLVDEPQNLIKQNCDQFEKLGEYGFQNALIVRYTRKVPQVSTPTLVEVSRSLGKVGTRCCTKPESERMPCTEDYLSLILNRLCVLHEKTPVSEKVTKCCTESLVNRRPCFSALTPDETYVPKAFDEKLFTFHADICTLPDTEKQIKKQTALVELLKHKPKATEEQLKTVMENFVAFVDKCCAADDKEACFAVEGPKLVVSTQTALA
T2 sequence (main, as listed by the source): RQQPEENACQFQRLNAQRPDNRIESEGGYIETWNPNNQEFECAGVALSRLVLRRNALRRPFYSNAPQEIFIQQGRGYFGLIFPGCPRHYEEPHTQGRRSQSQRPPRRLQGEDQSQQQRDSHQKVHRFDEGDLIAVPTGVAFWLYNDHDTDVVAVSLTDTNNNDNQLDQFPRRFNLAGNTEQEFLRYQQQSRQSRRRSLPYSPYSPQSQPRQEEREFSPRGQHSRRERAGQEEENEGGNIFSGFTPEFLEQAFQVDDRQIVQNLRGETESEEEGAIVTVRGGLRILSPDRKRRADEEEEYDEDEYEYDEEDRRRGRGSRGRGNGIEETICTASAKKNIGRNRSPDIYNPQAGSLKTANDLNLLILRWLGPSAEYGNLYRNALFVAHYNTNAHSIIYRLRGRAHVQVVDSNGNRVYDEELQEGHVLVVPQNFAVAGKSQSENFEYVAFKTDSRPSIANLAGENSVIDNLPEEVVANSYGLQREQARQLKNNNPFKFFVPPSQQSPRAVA

B1: PA14P3H08 (antibody, human IgG1, V domains shown)
VH: QVQLVESGGGVVQPGRSLTLSCAASGFNFKTYGMHWVRQAPGKGLEWVAVIYHDGNDKFYADSVKGRFTISRDNSKNTLYVQMSSLRADDTAIYYCAKGIFSSGYHYGMDVWGQGTAVIVSS
VL: DIQMTQSPSSLSASLGDSVTITCLASQGIKEFLSWFQQKPGQAPKLLIYDASSSHSGVPSRFSGSGSATHFTLTISSLQPDDIATYYCQQYHQVPLTFGQGTRLEIK
notes: human IgG1
Regarding B1, the binding result in the test with BSA [1] was “no binding (tested: 2 ng/µL)”.

B2: PA12P1G11 (antibody, human IgG1, V domains shown)
VH: QVQLVQSGAEVRKPGSSVKVSCKASGGTFSNNPITWVRQAPGQGLEWMGWIIPIFNTTNYAQKFQGRVTITADESTSTAYMELSSLKSEDTALFYCARDRAHAYCNNGVCYTTDAFDVWGQGTLVTVSS
VL: ETVLTQSPATLSLSPGERATLSCRASQSVGRYLAWYQHKPGQAPRLLIYDASNRATGIPARFSGSGSGTDFTLTISSLEPEDSAVYYCQQGTDWLTFGGGTKVEIK
notes: human IgG1
Turning to B2, the binding result with BSA [1] was “no binding (tested: 2 ng/µL)”.

B3: PA13P1E10 (antibody, human IgG1, V domains shown)
VH: QVQLVDSGGGVVQPGKSLRLSCVGSGFTFRTFGIHWVRQAPGKGLEWVAVISNDGGNSASADSVKGRFTTSRDNSKNTVYLQINSLRPEDTAIYYCAKVLDYSAFSYYYGMDVWGQGTTVIVSS
VL: EIVLTQSPGTLSLSPGERGTLSCRTSQPISRAHLAWYQHKAGQAPRLLIYGSTERAAGIPERFSGGGSGSDFTLTISSLEAEDFAVYYCQHYGRSPPYTFGQGTKVEIK
notes: human IgG1, kappa
In the case of B3, the binding result with BSA [2] was “no binding (tested: 2 ng/µL)”. For the same molecule, binding in test [3] was put at a Kd of 5 nM.

B4: PA12P3E09 (antibody, human IgG1, V domains shown)
VH: QVQLVQSGAEVKKPGSSVKVSCKASGGTFSSYSISWVRQAPGQGLEWMGGIIPIFGSGSYAQKFQGRVTITADKSTSTAYMELSSLSSDDTAVYYCARGESPSNFVYYGMDVWGQGTTVTVSS
VL: DIVLTQSPLSLPVTPGEPASISCRSSHSLLHSNGYNHLDWYLQKPGQSPQLLIYLGSNRASGVPDRFSGSGSGTDFTLKISRVEAEDVGVYYCMQALLVTFGPGTKVDIK
notes: human IgG1
With B4, the binding result with BSA [1] is recorded as “no binding (tested: 2 ng/µL)”.

B5: PA11P1G10 (antibody, human IgG1, V domains shown)
VH: QVQLQESGPGLVKPSQTLSLTCTVSGGSINTGAYYWSWIRQHPGKGLEWIGYIYYSGSTYYNPSLKSRVTISKDTSKNQFSLRLTSVTAADTAVYYCVREKLTGAPDNWGQGTLVAVSS
VL: DIQMTQSPSSLSASVGDRVTITCRASQGVSNYLAWFHQKPGKAPKSLIYAASTLHDGVPSSFSGSGSGTEFTLTISDLQPEHFGTYYCEQYNSYPFTFGPGTTVDFK
notes: human IgG1
On to B5, for which the binding result with BSA [1] is listed as “no binding (tested: 2 ng/µL)”.

B6: PA12P3D08 (antibody, human IgG1, V domains shown)
VH: QVQLVESGGGVVQPGKSLRLSCAASAFTFRRFAMHWVRQAPGKGLEWVAVISDNGLREDYEDSVKGRFTISRDNSQNTLYLQMNGLRAEDTAVYYCAKVLDYNEYSLYFGMDVWGQGTTVTVSS
VL: EVVLTQSPATLSLSPGERATLSCRTSQAISNNFLAWYQQRPGQPPRLLIYASSRRATDTPDRFTGSGSGTDFTLTITRLEPEDFAVYFCQYYSDSPPYTFGPGTKLEIK
notes: human IgG1, kappa
Turning to B6, the binding result in the test with BSA [2] is reported as “no binding (tested: 2 ng/µL)”. Besides, binding in test [3] was characterised by a dissociation constant (Kd) of 22 nM.

B7: PA12P1C07 (antibody, human IgG1, V domains shown)
VH: QVQLEESGGGVVQPGKSLRLSCVASAFTFKRFAMHWVRQAPGKGLEWVAVISDNGLREDYEDSVKGRFTISRDNSKDTLYLQMNSLRPEDTAIYYCAKVLDYSEYSLYFGMDVWGQGTTVLVSS
VL: EIVLTQSPAILSLSPGDRATLSCRTSQTVNSNFLAWYQQKPGQAPRLLIYGASRRAIDIPDRFTGSGSGTEFTLTIARLEPEDFAVYSCQHYSDSPPYTFGQGTKLEIK
notes: human IgG1, kappa
On to B7, for which the binding result with BSA [2] is on record as “no binding (tested: 2 ng/µL)”. Further, in test [3], the Kd (usually the equilibrium constant for the complex coming apart) was found to be 11 nM.

B8: PA12P1D02 (antibody, human IgG1, V domains shown)
VH: QLQLQQWGAGLVKPSETLSLTCTVSGGSLSGHFWSWIRQSPEKGLEWIGEINHSGRKNYNPSLMIRVDISIDTSKNQFSMRMTSLTAADSAVYYCARVGRNIVDTDDAFDVWGRGTLVTVSS
VL: EIVLTQSPGTLSLSPGDTVTLSCRASQTIDSIYLAWYQQRPGQAPRLLIYGASTRATGTPDRFSGGGSGTDFTLTITRLEPEDFAVYFCQQYGTSPPITFGRGTRLEIK
notes: human IgG1
B8: in the test with BSA [1], the binding result is recorded as “no binding (tested: 2 ng/µL)”.

B9: PA12P3F10 (antibody, human IgG1, V domains shown)
VH: QVQLVESGGGVVQPGGSLTLSCVGSGFTFSHYAIHWVRQAPGKGLEWVAVISNVGTTRDYADSLKGRLTISRENSQSTVFLQMNSLRADDTAIYYCAKVLDYSEFHYYYGLDVWGQGTAVAVSS
VL: EIVLTQSPGTLSLSPGQRVTLSCRVSQAIPTMYVAWYQQRPGQAPRLLIYGTSSRATGIPDRFSGGGSGTDFTLTINRLEPEDIAVYYCQHYSNSPPYTFGPGTKLEIK
notes: human IgG1, kappa
With B9, in the test with BSA [2], the binding result is given as “no binding (tested: 2 ng/µL)”. The Kd in test [3] is 11 nM.

B10: PA13P1H08 variant rCDR1-N (antibody, human IgG1, V domains shown)
VH: QVQLVNSGGGVVQPGRSLRLSCVASGFTFSSYGIHWVRQAPGKGLEWVAVISNDGEKSESADSVKGRFTPSRDNSKNTVYLQMNNLRVEDTAVYYCAKVLDYSRYSYYYGMDVWGQGTTVIVSS
VL: EIVLTQSPGTLSLSPGGRGTLSCRTSQTINNAHLAWYQHKPGQAPRLLIYGSSERATGVPDRFSGSGSGSDFTLTISSLEAEDFAVYYCQHYGRSPPYTFGPGTKLDIK
notes: human IgG1, kappa; also called heavy chain CDR1 reverted
Take B10: the binding result with BSA [2] is reported as “no binding (tested: 2 ng/µL)”. In test [4], the Kd came out at 0.5 nM.

B11: PA13P1H08 variant rCDR2-N (antibody, human IgG1, V domains shown)
VH: QVQLVNSGGGVVQPGRSLRLSCVASGFTFSTFGIHWVRQAPGKGLEWVAVISYDGSNKESADSVKGRFTPSRDNSKNTVYLQMNNLRVEDTAVYYCAKVLDYSRYSYYYGMDVWGQGTTVIVSS
VL: EIVLTQSPGTLSLSPGGRGTLSCRTSQTINNAHLAWYQHKPGQAPRLLIYGSSERATGVPDRFSGSGSGSDFTLTISSLEAEDFAVYYCQHYGRSPPYTFGPGTKLDIK
notes: human IgG1, kappa; also called heavy chain CDR2 reverted
Regarding B11, the binding result with BSA [2] is reported as “no binding (tested: 2 ng/µL)”. This molecule had a Kd in test [4] of 0.0042 nM.

B12: PA13P1H08 variant rCDR3-N (antibody, human IgG1, V domains shown)
VH: QVQLVNSGGGVVQPGRSLRLSCVASGFTFSTFGIHWVRQAPGKGLEWVAVISNDGEKSESADSVKGRFTPSRDNSKNTVYLQMNNLRVEDTAVYYCAKVLDYSNYYYYYGMDVWGQGTTVIVSS
VL: EIVLTQSPGTLSLSPGGRGTLSCRTSQTINNAHLAWYQHKPGQAPRLLIYGSSERATGVPDRFSGSGSGSDFTLTISSLEAEDFAVYYCQHYGRSPPYTFGPGTKLDIK
notes: human IgG1, kappa; also called heavy chain CDR3 reverted
Take B12: the binding result in the test with BSA [2] is “no binding (tested: 2 ng/µL)”. Moreover, binding in test [4] was characterised by a dissociation constant (Kd) of 0.29 nM.

B13: PA13P3G09 (antibody, human IgG1, V domains shown)
VH: QEQLVESGGGVVHPGGSLRLSCVASAFTFNRFGMHWVRQAPGKGLEWVAVISNDGRSQDYADSVKGRFIISRDNSKNTLYLQLNSLRFEDTAVYYCAKVLDYSIFYYYFGLDVWGQGTTVTVSS
VL: EVVLTQSPGSLSLSPGERATLSCRAGQSLSSKFLAWYQHKPGQAPRLLIYGASTRATGVPDRFSGSGSGTDFSLIISRVEPEDFAVYYCQHYGDSPPYTFGQGTKVEMK
notes: human IgG1, kappa
Consider B13, for which the binding result in the test with BSA [2] is given as “no binding (tested: 2 ng/µL)”. The Kd in test [3] came to 19 nM.

B14: PA13P1H03 (antibody, human IgG1, V domains shown)
VH: EVQLVESGGGLVQPGGSLRLSCAASGFTFRNYWMNWVRQAPGKGLVWVSRINSEGSSTSYADPVKGRFTISRDNAKDTLYLQMDSLRAEDSAVYYCARIFNGYIHVGRDYWGQGTRVTVSS
VL: DIQMTQSPSTLSASIGDRVTITCRASESISNWLAWFQQKPGKAPKLLIYKASNLESGVPSRFSGSGSGTEFTLTISSLQPDDFATYYCQQYNSNSQTFGQGTKLDLK
notes: human IgG1
B14: the binding result with BSA [1] is reported as “no binding (tested: 2 ng/µL)”.

B15: PA12P4D02 (antibody, human IgG1, V domains shown)
VH: QVQLVESGGGVVQPGRSLRLSCAASGFTFSSYAMHWVRQAPGKGREWVAALSYDGSSTYYADSVKGRLTISRDNSKNTLYLQMNSLRAEDTAVYFCTRVPYGEGRAANDYWGQGTLVTVSS
VL: DIQMTQSPSTLSASVGDRVTITCRASQSIGSWLAWYQQKPGKAPKLLIYKASNIESGVPSRFSGSGSGTEFTLTISSLQPDDFATYYCQHYNTYSRSFGGGTEVAIK
notes: human IgG1
As to B15, the binding result with BSA [1] is “no binding (tested: 2 ng/µL)”.

B16: PA11P1D11 (antibody, human IgG1, V domains shown)
VH: QVELVESGGGVVQPGRSLRLSCVASGFTFSDYGMHWVRQAPGKGLEWVAVIWFDGSSKYYADSVKGRFTISRDDSKNTVFMQMNNVRVEDTAVYYCAREQWLGTEYFQNWGQGTLVTVSS
VL: EIVMTQSPATLSLFPGERATLSCRASQSVAGNLAWYQQKPGQAPRLLIYEASTRATDIPARFSGSGSETEFTLTISSLQSEDFAVYYCQQYKKWLITFGQGTRLEIK
notes: human IgG1
As for B16, in the test with BSA [1], the binding result is recorded as “no binding (tested: 2 ng/µL)”.

B17: PA12P3E11 (antibody, human IgG1, V domains shown)
VH: QVQLVESGGGLVTPGGSLRLSCTVSGFTLSDYYMSWIRQAPGKGLDWLSYISGSGDNKNYADSVRGRFTISRDNSKNSLYLQMNSLRAEDTAVYYCAREFPSGGYSPGVVLWGQGTLVTVSS
VL: NFVLTQPHSVSESPGKTVTISCARSSGSIAGSFVQWYQQRPGSSPTTVIYEDTRRPSGVPDRFSGSIDSSSNSASLTISGLKTEDEADYYCQSYDSTNPWVFGGGTKLTVL
notes: human IgG1
Turning to B17, in the test with BSA [1], the binding result is reported as “no binding (tested: 2 ng/µL)”.

The record behind these values is US20210246195A1 (CZ BIOHUB SF, published 2021).
